Molecular target: T1, hCMV glycoprotein H (gH) (human cytomegalovirus (Human …, UniProt Q6SW67 24-742))
T1 construct: also called envelope glycoprotein H
T1 sequence: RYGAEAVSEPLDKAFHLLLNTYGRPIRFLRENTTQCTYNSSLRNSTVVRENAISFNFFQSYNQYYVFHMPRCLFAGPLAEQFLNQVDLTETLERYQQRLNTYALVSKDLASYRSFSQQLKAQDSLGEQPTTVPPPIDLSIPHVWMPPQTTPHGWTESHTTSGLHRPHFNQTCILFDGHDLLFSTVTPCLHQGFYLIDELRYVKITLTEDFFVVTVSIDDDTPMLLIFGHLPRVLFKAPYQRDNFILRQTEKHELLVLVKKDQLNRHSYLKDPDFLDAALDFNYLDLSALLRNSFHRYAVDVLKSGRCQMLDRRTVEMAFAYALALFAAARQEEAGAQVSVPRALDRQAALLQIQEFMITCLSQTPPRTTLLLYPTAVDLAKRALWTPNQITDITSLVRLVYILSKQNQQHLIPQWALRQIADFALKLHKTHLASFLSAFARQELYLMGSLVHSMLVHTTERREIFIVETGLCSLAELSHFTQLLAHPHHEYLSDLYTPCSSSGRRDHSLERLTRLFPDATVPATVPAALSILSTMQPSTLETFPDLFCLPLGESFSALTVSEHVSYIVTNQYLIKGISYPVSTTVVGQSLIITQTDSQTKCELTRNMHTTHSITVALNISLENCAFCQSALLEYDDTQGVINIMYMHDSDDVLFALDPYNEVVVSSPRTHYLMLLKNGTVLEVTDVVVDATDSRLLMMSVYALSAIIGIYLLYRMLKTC
Experiment: co-expression in HeLa cells, surface gH read by FACS with 3G16

B1: hCMV glycoprotein L (gL) (other)
chain: AAVSVAPTAAEKVPAECPELTRRCLLGEVFEGDKYESWLRPLVNVTGRDGPLSQLIRYRPVTPEAANSVLLDEAFLDTLALLYNNPDQLRALLTLLSSDTAPRWMTVMRGYSECGDGSPAVYTCVDDLCRGYDLTRLSYGRSIFTEHVLGFELVPPSLFNVVVAIRNEATRTNRAVRLPVSTAAAPEGITLFYGLYNAVKEFCLRHQLDPPLLRHLDKYYAGLPPELKQTRVNLPAHSRYGPQAVDAR
binding result: binds

From patent publication US20180271975A1 (MODERNATX, published 2018)
